Results taken from the RNAGym collection of RNA variant scans (doi:10.1073/pnas.2313332121).
Fewer inactive variants are shown than the library holds.

B1: TPR 5TU (parent)
chain: GGAUCUUCUCGAUCUAACAAAAAAGACAAAUCUGCCACAAAGCUUGAGAGCAUCUUCGGAUGCAGAGGCGGCAGCCUUCGGUGGCGCGAUAGCGCCAACGUUCUCAACUAUGACACGCAAAACGCGUGCUCCGUUGAAUGGAGUUUAUCAUG

Variants of: B1
Assay: polymerase ribozyme fitness, log enrichment relative to wild type (log ratio); higher = more active; in vitro selection for triplet polymerase activity
In short: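 After PCR construction and transcription, each subunit's mutant library from a heterodimeric triplet polymerase ribozyme was annealed with a biotinylated primer, the partner subunit and triplets. Incubation was frozen, at −7 °C, and extended constructs were gel-excised, bound to streptavidin beads and amplified by RT-PCR, in one selection round done in triplicate. Fitness is the logarithm of a genotype's enrichment divided by that of the wild type, from inverse-variance-weighted replicate averages of Illumina-sequenced inputs and outputs. The base of the logarithm is 2, and genotypes needed ≥10 input reads and ≥1 read per output.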

Row | Variant | polymerase ribozyme fitness (log ratio)
1 | C43A G48U A60G G83C C87U G126U A138C | ≤ -4.2
2 | U45A A47U G65C A66U G86C C87G C131G | ≤ -4.2
3 | G42A C93A U102G U135A | ≤ -4.2
4 | G42U U55G G59A G88U C96G A98G C118G | ≤ -4.2
5 | U44G A73U C85U U109G | ≤ -4.2
6 | C43U C79A | -4.15
7 | G42A G48U A52U C75A U90C | ≤ -4.2
8 | C43U A66G C105A | ≤ -4.2
9 | G42A A60G C87G | ≤ -4.2
10 | G42U G59U G84A C85U C103G A119G | ≤ -4.2
11 | C43U G84U A113U | ≤ -4.2
12 | U44A C79G C85A U111G G133C | ≤ -4.2
13 | G42C U45G U146C | ≤ -4.2
14 | G42A C116G A150U | ≤ -4.2
15 | C43U U55G A60U U109A U145C U146C | ≤ -4.2
16 | U44A G58A C93U C96G A97G A98U A119G U144C A150U | ≤ -4.2
17 | C43U C103G | ≤ -4.2
18 | G42C G48A C103A U144C | ≤ -4.2
19 | A41U U56A C85A | -2.38
20 | C43A A52G C69U A91U C96U A106U | ≤ -4.2
21 | G42C G86C | ≤ -4.2

Row | Variant | polymerase ribozyme fitness (log ratio)
22 | G42C G86U | ≤ -4.2
23 | C43U A138C | ≤ -4.2
24 | U44G G92U | ≤ -4.2
25 | G42C U90C U109A | ≤ -4.2
26 | U44A U82G G84C C87G A113C C118U | ≤ -4.2
27 | G42C C85U | -3.97
28 | G42A U44G U56A G81C C85A G117U | ≤ -4.2
29 | U44A G117U | ≤ -4.2
30 | G42A G68C G94U | ≤ -4.2
31 | U44A A89U G92C C95U | ≤ -4.2
32 | U44A U45A C51U C95A C103G | ≤ -4.2
33 | U44A C85U | -4.17
34 | U44A U77A C95A G143A | ≤ -4.2
35 | U44G G58C G59C U61A G94C | ≤ -4.2
36 | G42C G68U C85U G128A A150C | ≤ -4.2
37 | G42U G65A C95U U139G | ≤ -4.2
38 | C43A C57U C76G C85A G86A G140A | ≤ -4.2
39 | U44G U45G C54U C87A | ≤ -4.2
40 | G42C G62C A73C G94U C118G A120U G133C | ≤ -4.2
41 | U44A A47U C72G G86C A91C | ≤ -4.2
42 | U44A A49G | ≤ -4.2

Row | Variant | polymerase ribozyme fitness (log ratio)
43 | U44A A49C | -4.06
44 | U44G A60U C99G U111G G141C | ≤ -4.2
45 | U44G U61C | ≤ -4.2
46 | C43A A73G G83A A89U U90C G136C G141C | ≤ -4.2
47 | U44A G83U | -3.94
48 | A41U U82G G86U A97U G124C | -3.18
49 | C43U C57G G70A A89G C93U | ≤ -4.2
50 | C43A C96A U101G A150U | -4.16
51 | G42C C96U C99U | ≤ -4.2
52 | G42A A49C C54U C95U C118U | ≤ -4.2
53 | A41U U53A G88A U101G C108U G128C A142C | ≤ -4.2
54 | C43U C57U | -3.79
55 | C43G G94A G133U A137U | -4.11
56 | G42C U56G C114U U127A A138C | ≤ -4.2
57 | G42C C72U | ≤ -4.2
58 | C43G C57A G59C C72A C79A A138G U145A | ≤ -4.2
59 | C43G G50U U61C G86A C95U C125U U146G | ≤ -4.2
60 | G42C G62U A64C G71A C79G C132G U139G U146G | ≤ -4.2
61 | C43U A47G A64C G67U C96U G141A | ≤ -4.2
62 | C43A U44A C118U | -4.17
63 | G42C A60U G67C G128U A138U | ≤ -4.2

Row | Variant | polymerase ribozyme fitness (log ratio)
64 | C43U A91U A98G C99U U102G | ≤ -4.2
65 | G42A A73G C87U | ≤ -4.2
66 | G42A C116G | -3.99
67 | U44A C87A G126U | ≤ -4.2
68 | U44A U53A C79G C85G A119G U135G | ≤ -4.2
69 | G42A G58A A64C G65U G84U | ≤ -4.2
70 | G42A G59C C125G | ≤ -4.2
71 | G42A A49G A64G A107U C114U | ≤ -4.2
72 | U44G A47C A66G G67A C87A C96G U145A | ≤ -4.2
73 | G42A A52C C54A U56C G94C | ≤ -4.2
74 | C43U U55A C87U | ≤ -4.2
75 | C43G C87U U109G | ≤ -4.2
76 | U44G G46C A60C U61A C95U | ≤ -4.2
77 | C43U G62A A119U U134A | ≤ -4.2
78 | G42C A60G | -4.05
79 | U44G G58C C87G | ≤ -4.2
80 | C43G G84A C95A A106U C118G G143U | ≤ -4.2
81 | G42U A60G U61G C96G C99G C125U A150C | ≤ -4.2
82 | U44A G50U G59A C85A C99G G126U | ≤ -4.2
83 | C43U G59C U77A U111C | ≤ -4.2
84 | C43U A106G | ≤ -4.2
